From FireProtDB (doi:10.1016/0022-2836(92)90562-x) come the findings set out here.

To fix the notation:
B1: Ribonuclease, P00648 (parent)
chain: MMKMEGIALKKRLSWISVCLLVLVSAAGMLFSTAAKTETSSHKAHTEAQVINTFDGVADYLQTYHKLPDNYITKSEAQALGWVASKGNLADVAPGKSIGGDIFSNREGKLPGKSGRTWREADINYTSGFRNSDRILYSSDWLIYKTTDHYQTFTKIR

Variants of B1 are the subject of the data set. As to conditions: Bacillus amyloliquefaciens; pH 6.3; 25 °C; Urea; Fluorescence; MES-NaOH 450 mM; reversible: yes; structure 1BNI; whole UniProt chain shown.

For MMKMEGIALKKRLSWISVCLLVLVSAAGMLFSTAAKTETSSHKAHTEAQVINTFAGVAAYLQTYHKLPDNYITKSEAQALGWVASKGNLADVAPGKSIGGDIFSNREGKLPGKSGRTWREADINYTSGFRNSDRILYSSDWLIYKTTDHYQTFTKIA [D55A D59A R157A], the “ddG of mutation (higher = less stable)” value was -0.18 kcal/mol, the denaturant m value was found to be 1.94 kcal/mol/M, the “denaturant midpoint (higher = more stable)” value (“denaturant midpoint” for short) amounted to 4.63 M and the unfolding free energy came to 9 kcal/mol.

With MMKMEGIALKKRLSWISVCLLVLVSAAGMLFSTAAKTETSSHKAHTEAQVINTFDGVADYLQRYHKLPDNYITKSEAQALGWVASKGNLADVAPGKSIGGDIFSNREGKLPGKSGRTWREADINYTSGFRNSDRILYSSDWLIYKTTDHYQTFTKIR [T63R], the “ddG of mutation (higher = less stable)” value was -0.74 kcal/mol, the denaturant m value was 1.99 kcal/mol/M, the “denaturant midpoint” value came out at 4.8 M and the unfolding free energy was 9.56 kcal/mol.

For MMKMEGIALKKRLSWISVCLLVLVSAAGMLFSTAAKTETSSHKAHTEAQVINTFDGVAAYLQTYHKLPDNYITKSEAQALGWVASKGNLADVAPGKSIGGDIFSNREGKLPGKSGRTWREADINYTSGFRNSDRILYSSDWLIYKTTDHYQTFTKIR [D59A], the “ddG of mutation (higher = less stable)” value came out at 0.39 kcal/mol, the denaturant m value is 1.91 kcal/mol/M, the “denaturant midpoint” value stood at 4.4 M and the unfolding free energy amounted to 8.43 kcal/mol.

MMKMEGIALKKRLSWISVCLLVLVSAAGMLFSTAAKTETSSHKAHTEAQVINTFDGVAAYLQTYHKLPDNYITKSEAQALGWVASKGNLADVAPGKSIGGDIFSNREGKLPGKSGRTWREADINYTSGFRNSDRILYSSDWLIYKTTDHYQTFTKIA [D59A R157A]: the “ddG of mutation (higher = less stable)” value is -0.39 kcal/mol, the denaturant m value is 1.93 kcal/mol/M, the “denaturant midpoint” value turned out to be 4.78 M and the unfolding free energy is 9.21 kcal/mol.

In the case of MMKMEGIALKKRLSWISVCLLVLVSAAGMLFSTAAKTETSSHKAHTEAQVINTFAGVADYLQTYHKLPDNYITKSEAQALGWVASKGNLADVAPGKSIGGDIFSNREGKLPGKSGRTWREADINYTSGFRNSDRILYSSDWLIYKTTDHYQTFTKIR [D55A], the “ddG of mutation (higher = less stable)” value stood at 0.85 kcal/mol, the denaturant m value was 1.94 kcal/mol/M, the “denaturant midpoint” value stood at 4.1 M and the unfolding free energy was 7.97 kcal/mol.

On to MMKMEGIALKKRLSWISVCLLVLVSAAGMLFSTAAKTETSSHKAHTEAQVINTFDGVADYAQTYHKLPDNYITKSEAQALGWVASKGNLADVAPGKSIGGDIFSNREGKLPGKSGRTWREADINYTSGFRNSDRILYSSDWLIYKTTDHYQTFTKIR [L61A], for which the “ddG of mutation (higher = less stable)” value was determined as 4.53 kcal/mol, the denaturant m value was 1.87 kcal/mol/M, the “denaturant midpoint” value was 2.2 M and the unfolding free energy stood at 4.29 kcal/mol.

For MMKMEGIALKKRLSWISVCLLVLVSAAGMLFSTAAKTETSSHKAHTEAQVINTFDGVADALQTYHKLPDNYITKSEAQALGWVASKGNLADVAPGKSIGGDIFSNREGKLPGKSGRTWREADINYTSGFRNSDRILYSSDWLIYKTTDHYQTFTKIR [Y60A], the “ddG of mutation (higher = less stable)” value was 3 kcal/mol, the denaturant m value was 2.03 kcal/mol/M, the “denaturant midpoint” value was 2.8 M and the unfolding free energy stood at 5.82 kcal/mol.

In the case of MMKMEGIALKKRLSWISVCLLVLVSAAGMLFSTAAKTETSSHKAHTEAQVVNTFDGVADYLQTYHKLPDNYITKSEAQALGWVASKGNLADVAPGKSIGGDIFSNREGKLPGKSGRTWREADINYTSGFRNSDRILYSSDWLIYKTTDHYQTFTKIR [I51V], the “ddG of mutation (higher = less stable)” value stood at 0.81 kcal/mol, the denaturant m value was 1.88 kcal/mol/M, the “denaturant midpoint” value was found to be 4.2 M and the unfolding free energy is 8.01 kcal/mol.

On to MMKMEGIALKKRLSWISVCLLVLVSAAGMLFSTAAKTETSSHKAHTEAQVANTFDGVADYLQTYHKLPDNYITKSEAQALGWVASKGNLADVAPGKSIGGDIFSNREGKLPGKSGRTWREADINYTSGFRNSDRILYSSDWLIYKTTDHYQTFTKIR [I51A], for which the “ddG of mutation (higher = less stable)” value was found to be 0.75 kcal/mol, the denaturant m value came to 2.08 kcal/mol/M, the “denaturant midpoint” value is 3.8 M and the unfolding free energy is 8.07 kcal/mol.

For MMKMEGIALKKRLSWISVCLLVLVSAAGMLFSTAAKTETSSHKAHTEAQVINGFDGVADYLQTYHKLPDNYITKSEAQALGWVASKGNLADVAPGKSIGGDIFSNREGKLPGKSGRTWREADINYTSGFRNSDRILYSSDWLIYKTTDHYQTFTKIR [T53G], the “ddG of mutation (higher = less stable)” value was determined as 0.61 kcal/mol, the denaturant m value turned out to be 2.08 kcal/mol/M, the “denaturant midpoint” value was 3.9 M and the unfolding free energy came out at 8.21 kcal/mol.

For the variant MMKMEGIALKKRLSWISVCLLVLVSAAGMLFSTAAKTETSSHKAHTEAQVINAFDGVADYLQTYHKLPDNYITKSEAQALGWVASKGNLADVAPGKSIGGDIFSNREGKLPGKSGRTWREADINYTSGFRNSDRILYSSDWLIYKTTDHYQTFTKIR [T53A], the “ddG of mutation (higher = less stable)” value was 2.02 kcal/mol, the denaturant m value turned out to be 1.97 kcal/mol/M, the “denaturant midpoint” value turned out to be 3.4 M and the unfolding free energy worked out at 6.8 kcal/mol.

With MMKMEGIALKKRLSWISVCLLVLVSAAGMLFSTAAKTETSSHKAHTEAQVINTFAGVAAYLQTYHKLPDNYITKSEAQALGWVASKGNLADVAPGKSIGGDIFSNREGKLPGKSGRTWREADINYTSGFRNSDRILYSSDWLIYKTTDHYQTFTKIR [D55A D59A], the “ddG of mutation (higher = less stable)” value is 1.41 kcal/mol, the denaturant m value stood at 1.78 kcal/mol/M, the “denaturant midpoint” value stood at 4.16 M and the unfolding free energy is 7.41 kcal/mol.

With MMKMEGIALKKRLSWISVCLLVLVSAAGMLFSTAAKTETSSHKAHTEAQVIATFDGVADYLQTYHKLPDNYITKSEAQALGWVASKGNLADVAPGKSIGGDIFSNREGKLPGKSGRTWREADINYTSGFRNSDRILYSSDWLIYKTTDHYQTFTKIR [N52A], the “ddG of mutation (higher = less stable)” value amounted to 1.59 kcal/mol, the denaturant m value was 2 kcal/mol/M, the “denaturant midpoint” value was found to be 3.6 M and the unfolding free energy is 7.23 kcal/mol.

Regarding MMKMEGIALKKRLSWISVCLLVLVSAAGMLFSTAAKTETSSHKAHTEAQVINTFDGAADYLQTYHKLPDNYITKSEAQALGWVASKGNLADVAPGKSIGGDIFSNREGKLPGKSGRTWREADINYTSGFRNSDRILYSSDWLIYKTTDHYQTFTKIR [V57A], the “ddG of mutation (higher = less stable)” value is 3.47 kcal/mol, the denaturant m value turned out to be 1.89 kcal/mol/M, the “denaturant midpoint” value was 2.8 M and the unfolding free energy was determined as 5.35 kcal/mol.

MMKMEGIALKKRLSWISVCLLVLVSAAGMLFSTAAKTETSSHKAHTEAQVINTFDGTADYLQTYHKLPDNYITKSEAQALGWVASKGNLADVAPGKSIGGDIFSNREGKLPGKSGRTWREADINYTSGFRNSDRILYSSDWLIYKTTDHYQTFTKIR [V57T]: the “ddG of mutation (higher = less stable)” value came to 1.99 kcal/mol, the denaturant m value is 2.07 kcal/mol/M, the “denaturant midpoint” value is 3.3 M and the unfolding free energy stood at 6.83 kcal/mol.

For MMKMEGIALKKRLSWISVCLLVLVSAAGMLFSTAAKTETSSHKAHTEAQVINTFDGVADALQTAHKLPDNYITKSEAQALGWVASKGNLADVAPGKSIGGDIFSNREGKLPGKSGRTWREADINYTSGFRNSDRILYSSDWLIYKTTDHYQTFTKIR [Y60A Y64A], the “ddG of mutation (higher = less stable)” value was 3.96 kcal/mol, the denaturant m value stood at 2 kcal/mol/M, the “denaturant midpoint” value was 2.43 M and the unfolding free energy was 4.86 kcal/mol.
